Measurements taken from patent US9675675B2, “Microneedle device having a peptide therapeutic agent and an amino acid, methods of making and using the same” (3M INNOVATIVE PROPERTIES COMPANY, priority 2011, dated 2017).

Key:
[1] = Storage stability of insulin in dried coating on microneedle arrays, HPLC content; type: physicochemical; settings: 5 mg/mL insulin in 0.1 N acetic acid, pH 3.0-3.5; for Percent of Initial Insulin Content in the Coating, Initial: freshly coated reference standard, about 4° C.; for Percent of Initial Insulin Content in the Coating, Day 1 / Percent of Initial Insulin Content in the Coating, Day 3 / Percent of Initial Insulin Content in the Coating, Day 7 / Percent of Initial Insulin Content in the Coating, Day 14: stored 40° C., 96% RH
Experimental: (§1) The protein or polypeptide content in the formulation coated on the microneedle arrays was determined using an Agilent 1100 HPLC system (Agilent Technologies, Wilmington, Del.) equipped with a binary pump, well-plated thermostated autosampler, thermostated column compartment, and a diode array UV detector. A Zorbax 300SB-C8 column (Agilent Technologies, Wilmington, Del.) having a 5 μm particle size and 2.1×150 mm inner diameter was used for the separations. The column was maintained at 50° C. The mobile phase consisted of two eluents. Eluent A was 0.1% TFA (trifluoroacetic acid) in water and eluent B was 0.1% TFA in acetonitrile (Spectrum Chemical, New Brunswick, N.J.). A linear gradient from 80/20 to 50/50 (A/B) was applied over 30 minutes. The flow rate was 0.4 mL/minute and the UV detection wavelength was set at 214 nm. The total run time was 34 minutes and the sample injection volume was 15 μL.
The pH of the sample formulation was 3.0-3.5. […] The pH of the control formulation was 3.0-3.5. Microneedle arrays were coated with either the sample or the control formulation. The coating was applied by dropwise addition of 50 μL of the formulation to the portion of the array defined by the octagon shaped pattern of microneedles. The flood coated arrays (both sample and control formulation coated) were dried in an oven at 35° C. for about 15 hours.
After drying, the coated arrays were placed in a storage chamber that was maintained at 40° C. and 96% relative humidity (RH). […] At the designated time point, an array was taken from the chamber and washed with 0.1 N acetic acid (1 mL) to remove the coating from the array. […] The arrays used as reference standards were stored in a refrigerator at about 4° C. and analyzed within one day of being prepared.
[…] The pH of the sample formulation was 3.0-3.5.

[2] = Storage stability of lysozyme in dried coating on microneedle arrays, HPLC content; type: physicochemical; settings: 10 mg/mL lysozyme in PBS; for Percent of Initial Lysozyme Content in the Coating, Initial: freshly coated reference standard, about 4° C.; for Percent of Initial Lysozyme Content in the Coating, Day 1 / Percent of Initial Lysozyme Content in the Coating, Day 3 / Percent of Initial Lysozyme Content in the Coating, Day 7 / Percent of Initial Lysozyme Content in the Coating, Day 14: stored 40° C., 96% RH
Experimental: as §1
A sample formulation containing 10 mg/mL of lysozyme and 12 mg/mL of L-histidine monohydrochloride (His-HCl) in PBS was prepared. The pH of the sample formulation was 5.5-6.0. A control formulation was also prepared containing 10 mg/mL of lysozyme in PBS. […] The pH of the control formulation was 6.5. Microneedle arrays were coated with either the sample or the control formulation. The coating was applied by dropwise addition of 50 μL of the formulation to the portion of the array defined by the octagon shaped pattern of microneedles. The flood coated arrays (both sample and control formulation coated) were dried in an oven at 35° C. for about 15 hours.
After drying, the coated arrays were placed in a storage chamber that was maintained at 40° C. and 96% relative humidity (RH). The lysozyme content of the coated arrays was determined following storage in the chamber for 1, 3, 7, and 14 days. At the designated time point, an array was taken from the chamber and washed with PBS (2 mL) to remove the coating from the array. An aliquot of the resulting wash solution was analyzed for lysozyme content using the HPLC method described above. Reference standards were prepared by measuring the lysozyme content of freshly coated arrays (both sample and control formulation coated). The arrays used as reference standards were stored in a refrigerator at about 4° C. and analyzed within one day of being prepared. The percentage of undegraded lysozyme remaining in the coating at each time point was determined by measuring the peak area for lysozyme in the selected coating and dividing it by the peak area measured for lysozyme in the corresponding reference standard.
The same procedure as described in Example 7 was used with the exception that the sample formulation contained 12 mg/mL of L-arginine hydrochloride, instead of L-histidine monohydrochloride. The pH of the sample formulation was 6.5.

[3] = Amino acid: L-Arginine (12 mg/mL Arg-HCl)
[4] = Amino acid: L-Histidine (12 mg/mL His-HCl)
[5] = Amino acid: L-Arginine (12 mg/mL Arg-HCl), pH 6.5
[6] = Amino acid: L-Histidine (12 mg/mL His-HCl), pH 5.5-6.0
[7] = Amino acid: None (control), pH 6.5

With Insulin the “Percent of Initial Insulin Content in the Coating, Initial” value [1, 3] was 100%, the “Percent of Initial Insulin Content in the Coating, Day 1” value [1, 3] was 75.4% and the “Percent of Initial Insulin Content in the Coating, Day 3” value [1, 3] was 45.9%. The “Percent of Initial Insulin Content in the Coating, Day 7” value [1, 3] was 27.1%, the “Percent of Initial Insulin Content in the Coating, Initial” value [1, 4] was 100% and the “Percent of Initial Insulin Content in the Coating, Day 1” value [1, 4] was 95.3%. For the same substance, the “Percent of Initial Insulin Content in the Coating, Day 3” value [1, 4] was 93.5%, the “Percent of Initial Insulin Content in the Coating, Day 7” value [1, 4] was 79.2% and the “Percent of Initial Insulin Content in the Coating, Day 14” value [1, 4] was 34.9%. The “Percent of Initial Insulin Content in the Coating, Initial” value ([1]; Amino acid: None (control)) was 100%, the “Percent of Initial Insulin Content in the Coating, Day 3” value ([1]; Amino acid: None (control)) was 0% and the “Percent of Initial Insulin Content in the Coating, Day 7” value ([1]; Amino acid: None (control)) was 0%. The “Percent of Initial Insulin Content in the Coating, Day 14” value ([1]; Amino acid: None (control)) was 0%.
With lysozyme the “Percent of Initial Lysozyme Content in the Coating, Initial” value [2, 5] was 100%, the “Percent of Initial Lysozyme Content in the Coating, Day 1” value [2, 5] was 52.6% and the “Percent of Initial Lysozyme Content in the Coating, Day 3” value [2, 5] was 33.1%. The “Percent of Initial Lysozyme Content in the Coating, Day 7” value [2, 5] was 22.4%, the “Percent of Initial Lysozyme Content in the Coating, Day 14” value [2, 5] was 23.0% and the “Percent of Initial Lysozyme Content in the Coating, Initial” value [2, 6] was 100%. The “Percent of Initial Lysozyme Content in the Coating, Day 1” value [2, 6] was 100.0%, the “Percent of Initial Lysozyme Content in the Coating, Day 3” value [2, 6] was 80.6% and the “Percent of Initial Lysozyme Content in the Coating, Day 7” value [2, 6] was 60.1%. For the same substance, the “Percent of Initial Lysozyme Content in the Coating, Day 14” value [2, 6] was 53.3%, the “Percent of Initial Lysozyme Content in the Coating, Initial” value [2, 7] was 100% and the “Percent of Initial Lysozyme Content in the Coating, Day 1” value [2, 7] was 26.9%. For the same substance, the “Percent of Initial Lysozyme Content in the Coating, Day 3” value [2, 7] was 4.4%, the “Percent of Initial Lysozyme Content in the Coating, Day 7” value [2, 7] was 1.9% and the “Percent of Initial Lysozyme Content in the Coating, Day 14” value [2, 7] was 1.9%.
